Consider eight substances from paper PMC3904411.

For assay [1], the target named is PcrG (Pseudomonas aeruginosa strain 2192). Briefly: SEC; HiLoad 16/60 Superdex 200 pg; 25 mM Tris–HCl pH 7.4, 150 mM NaCl; proteins 2–5 mg/ml; 1 ml/min; calibrated with markers.
In assay [2] the target is ∆PcrG_((13–72)) (Pseudomonas aeruginosa strain 2192). Kind of assay: SPR; BIACORE 3000, NTA sensor chip; […]; 10 mM hepes pH 7.4, 150 mM NaCl, 50 μM EDTA; 25°C; 5 μl/min; Langmuir binding model.
The target of assay [3] is PcrG (Pseudomonas aeruginosa strain 2192). The assay is described as above.
For assay [4] the target is unchanged. Briefly: cross-linking; EGS-sulfonate 0.5 mM, 1 mM and 2 mM, room temperature, 30 minutes; 10 mM hepes pH 7.4, 150 mM NaCl; 12% SDS PAGE.
Assay [5] shares this target. Kind of assay: dynamic light scattering; Malvern Zetasizer nano ZS; proteins 2–5 mg/ml, filtered 0.22 micron; ΔPcrV(128–294) alone and with equimolar PcrG.
Assay [6] concerns the target ∆PcrG_((13–72)) (Pseudomonas aeruginosa strain 2192). Briefly: native MS; called native mass spectrometry; protein diluted to 0.5-1.0 mg/ml in HPLC water, spotted on a MALDI target plate with CHCA matrix; Applied Biosystem 4700 Proteomics Analyser.

pKd: −log10 of the molar value.

PcrG (natural protein) displayed a stoichiometry N in assay [1] of 2.
In assay [2], “PcrV (from UniProt G3XD49 1-294) (natural protein)” gave a Ka of 1.75e+06 M⁻¹, a pKd of 6.24, a koff of 0.00978 s⁻¹ and an on-rate (kon) of 17100 M⁻¹ s⁻¹.
As to “ΔPcrV_((1–158)) (from UniProt G3XD49 1-158) (domain or fragment)”, in assay [3], the negative-log Kd (pKd) was 6.69.
The same measure, in the same setting: the result for “ΔPcrV_((1–250)) (from UniProt G3XD49 1-250) (domain or fragment)” reads 6.75.
Same read-out and setting: the same measure for “ΔPcrV_((128–250)) (from UniProt G3XD49 128-250) (domain or fragment)”: 6.61.
In assay [3], “ΔPcrV_((128–294)) (from UniProt G3XD49 128-294) (domain or fragment)” gave a Ka of 4.11e+07 M⁻¹, a pKd of 7.61, a koff of 1.24e-05 s⁻¹ and an on-rate constant (kon) of 511 M⁻¹ s⁻¹. Also, in assay [2], the Ka was 1.61e+06 M⁻¹, the negative-log Kd (pKd) was 6.21, the off-rate constant (koff) was 1.69e-05 s⁻¹ and the association rate constant (kon) was found to be 27.2 M⁻¹ s⁻¹. In assay [4], the stoichiometry N turned out to be 1. In assay [5], this substance returned a stoichiometry N of 1.
“ΔPcrV_((159–294)) (from UniProt G3XD49 159-294) (domain or fragment)”: in assay [3], the negative logarithm of the Kd (pKd) was 7.44.
In assay [6], ∆PcrG_((13–72)) (domain or fragment) yielded a stoichiometry N of 2.
